Assay results taken from publication PMC6614809, “The ATP-dependent chromatin remodelling enzyme Uls1 prevents Topoisomerase II poisoning” (Nucleic Acids Research, 2019).

Target: T1, Full length Top2 (HFP185), purified (budding yeast (S. cerevisiae), UniProt P06786 1-1428)
T1 construct: Topoisomerase II (Top2), yeast, full length; Called a homodimer in the methods; also called Topoisomerase II; yeast Top2
T1 sequence (looked up): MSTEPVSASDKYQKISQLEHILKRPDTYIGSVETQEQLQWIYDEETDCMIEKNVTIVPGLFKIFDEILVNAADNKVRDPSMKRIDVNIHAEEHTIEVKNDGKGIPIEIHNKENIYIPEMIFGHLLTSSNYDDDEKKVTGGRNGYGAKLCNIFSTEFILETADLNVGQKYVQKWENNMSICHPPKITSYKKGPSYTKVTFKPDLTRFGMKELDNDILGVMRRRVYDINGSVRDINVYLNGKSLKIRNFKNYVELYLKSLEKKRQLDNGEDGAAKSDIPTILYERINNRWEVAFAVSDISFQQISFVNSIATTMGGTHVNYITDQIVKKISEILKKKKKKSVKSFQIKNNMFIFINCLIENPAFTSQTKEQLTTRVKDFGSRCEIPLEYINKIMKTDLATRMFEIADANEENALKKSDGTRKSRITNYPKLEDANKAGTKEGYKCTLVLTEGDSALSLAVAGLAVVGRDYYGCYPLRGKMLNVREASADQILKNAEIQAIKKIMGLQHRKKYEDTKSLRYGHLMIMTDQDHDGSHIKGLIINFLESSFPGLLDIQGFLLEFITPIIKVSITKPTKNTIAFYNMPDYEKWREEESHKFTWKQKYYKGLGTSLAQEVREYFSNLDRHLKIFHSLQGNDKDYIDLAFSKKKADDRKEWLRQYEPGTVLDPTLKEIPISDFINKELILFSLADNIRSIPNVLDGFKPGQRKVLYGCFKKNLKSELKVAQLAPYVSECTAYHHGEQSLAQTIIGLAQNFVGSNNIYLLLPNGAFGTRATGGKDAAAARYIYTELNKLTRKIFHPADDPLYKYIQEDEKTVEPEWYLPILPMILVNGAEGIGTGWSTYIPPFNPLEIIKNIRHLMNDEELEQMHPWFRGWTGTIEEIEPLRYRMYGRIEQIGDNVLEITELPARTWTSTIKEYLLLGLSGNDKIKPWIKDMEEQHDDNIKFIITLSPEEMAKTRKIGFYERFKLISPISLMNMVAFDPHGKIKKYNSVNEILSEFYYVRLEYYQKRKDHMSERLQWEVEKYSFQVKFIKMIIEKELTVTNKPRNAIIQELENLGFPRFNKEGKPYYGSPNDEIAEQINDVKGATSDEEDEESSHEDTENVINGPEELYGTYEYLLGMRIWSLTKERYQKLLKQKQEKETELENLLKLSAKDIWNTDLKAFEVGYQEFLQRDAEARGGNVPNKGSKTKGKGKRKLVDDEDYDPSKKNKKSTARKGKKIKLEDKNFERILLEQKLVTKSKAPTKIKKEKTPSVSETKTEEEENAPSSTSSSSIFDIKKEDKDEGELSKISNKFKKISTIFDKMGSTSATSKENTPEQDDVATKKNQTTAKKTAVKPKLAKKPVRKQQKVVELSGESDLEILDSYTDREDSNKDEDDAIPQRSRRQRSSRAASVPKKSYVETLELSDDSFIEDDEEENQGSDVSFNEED
Test: pull-down; about 0.1 mg Uls1 fragment (bait) pre-bound to Strep-Tactin superflow beads; 200 ul Top2 (prey, 0.1 mg/ml) added, 1 h at 4 C; Pulldown buffer 25 mM HEPES pH 7.5, 150 mM KCl, 3 mM MgCl2, 5% glycerol, 1 mM DTT, 0.1% NP-40; three washes
Settings: both partners purified

binding result: binds
B1: Uls1 fragment 350-655, purified bait (domain or fragment, budding yeast (S. cerevisiae), UniProt Q08562 350-655, looked up)
chain: PSKNMDHTTHNSHDSEQKNSSIIILSDEDESGAGINDIESPLKVSEPNTADALRSSVPEVISLLDLPNIDLNNSVIKEASGSNSIPTSETDAQSSSSSVLQGTIMTEQATQSSQHECNSSLDTLKKNHQKLLKDLNSRESELRNALSCCKTNSEILRRKLSRREKEVSDAEKHWQLLLTSMARGGRTISSTQQILVDEAENQLNKLKEKRQLTKSKLDSINLKMYNYNEQWKSFVHSKNINLQKSLAALERSARDSKASATVNKRNECLAEKEKLDQMLKEGTLSFSTYKQLTGEIQQKLNDLKLG
notes: Tags are inferred from the resins used; also called bait protein; source: E. coli BL21(DE3)RIL, purified (TALON resin)
